Test results from patent US12679878B2, “CRF2 receptor agonists and their use in therapy” (SANOFI, priority 2020, dated 2026).
Starred links: 1 amine or outer side, 2 acyl side, 3 side chain; linkers in the order of their positions; H or OH if unused. Non-standard residues stand in square brackets, D forms with d. Groups on a side chain read outwards from the residue. No end group written: not given here. *: point of attachment. C18 diacid = O=C(O)CCCCCCCCCCCCCCCCC(=O)*; γGlu = O=C(O)[C@H](CCC(=O)[*:2])N[*:1]; AEEA = NCCOCCOCC(=O)O; Aib = CC(C)(N)C(=O)O

B1: SEQ ID NO: 102 (peptide)
peptide: IVLSLD[dV]PIKLK([AEEA-AEEA-γGlu-C18 diacid])QILLKQERQKKQREQAETNKQILAQV-NH2
modifications: N-terminus assumed
SMILES: CC[C@H](C)[C@H](N)C(=O)N[C@H](C(=O)N[C@@H](CC(C)C)C(=O)N[C@@H](CO)C(=O)N[C@@H](CC(C)C)C(=O)N[C@@H](CC(=O)O)C(=O)N[C@@H](C(=O)N1CCC[C@H]1C(=O)N[C@H](C(=O)N[C@@H](CCCCN)C(=O)N[C@@H](CC(C)C)C(=O)N[C@@H](CCCCNC(=O)COCCOCCNC(=O)COCCOCCNC(=O)CC[C@H](NC(=O)CCCCCCCCCCCCCCCCC(=O)O)C(=O)O)C(=O)N[C@@H](CCC(N)=O)C(=O)N[C@H](C(=O)N[C@@H](CC(C)C)C(=O)N[C@@H](CC(C)C)C(=O)N[C@@H](CCCCN)C(=O)N[C@@H](CCC(N)=O)C(=O)N[C@@H](CCC(=O)O)C(=O)N[C@@H](CCCNC(=N)N)C(=O)N[C@@H](CCC(N)=O)C(=O)N[C@@H](CCCCN)C(=O)N[C@@H](CCCCN)C(=O)N[C@@H](CCC(N)=O)C(=O)N[C@@H](CCCNC(=N)N)C(=O)N[C@@H](CCC(=O)O)C(=O)N[C@@H](CCC(N)=O)C(=O)N[C@@H](C)C(=O)N[C@@H](CCC(=O)O)C(=O)N[C@H](C(=O)N[C@@H](CC(N)=O)C(=O)N[C@@H](CCCCN)C(=O)N[C@@H](CCC(N)=O)C(=O)N[C@H](C(=O)N[C@@H](CC(C)C)C(=O)N[C@@H](C)C(=O)N[C@@H](CCC(N)=O)C(=O)N[C@H](C(N)=O)C(C)C)[C@@H](C)CC)[C@@H](C)O)[C@@H](C)CC)[C@@H](C)CC)C(C)C)C(C)C
B2: SEQ ID NO: 103 (peptide)
peptide: IVLSLDVPIKLK([AEEA-AEEA-γGlu-C18 diacid])QILLEQERQK[Aib]QREQAETNKQILAQV-NH2
modifications: N-terminus assumed
SMILES: CC[C@H](C)[C@H](N)C(=O)N[C@H](C(=O)N[C@@H](CC(C)C)C(=O)N[C@@H](CO)C(=O)N[C@@H](CC(C)C)C(=O)N[C@@H](CC(=O)O)C(=O)N[C@H](C(=O)N1CCC[C@H]1C(=O)N[C@H](C(=O)N[C@@H](CCCCN)C(=O)N[C@@H](CC(C)C)C(=O)N[C@@H](CCCCNC(=O)COCCOCCNC(=O)COCCOCCNC(=O)CC[C@H](NC(=O)CCCCCCCCCCCCCCCCC(=O)O)C(=O)O)C(=O)N[C@@H](CCC(N)=O)C(=O)N[C@H](C(=O)N[C@@H](CC(C)C)C(=O)N[C@@H](CC(C)C)C(=O)N[C@@H](CCC(=O)O)C(=O)N[C@@H](CCC(N)=O)C(=O)N[C@@H](CCC(=O)O)C(=O)N[C@@H](CCCNC(=N)N)C(=O)N[C@@H](CCC(N)=O)C(=O)N[C@@H](CCCCN)C(=O)NC(C)(C)C(=O)N[C@@H](CCC(N)=O)C(=O)N[C@@H](CCCNC(=N)N)C(=O)N[C@@H](CCC(=O)O)C(=O)N[C@@H](CCC(N)=O)C(=O)N[C@@H](C)C(=O)N[C@@H](CCC(=O)O)C(=O)N[C@H](C(=O)N[C@@H](CC(N)=O)C(=O)N[C@@H](CCCCN)C(=O)N[C@@H](CCC(N)=O)C(=O)N[C@H](C(=O)N[C@@H](CC(C)C)C(=O)N[C@@H](C)C(=O)N[C@@H](CCC(N)=O)C(=O)N[C@H](C(N)=O)C(C)C)[C@@H](C)CC)[C@@H](C)O)[C@@H](C)CC)[C@@H](C)CC)C(C)C)C(C)C
B3: SEQ ID NO: 105 (peptide)
peptide: IVLSLDVPIKLK([AEEA-AEEA-γGlu-C18 diacid])QILLEQERQK[Aib]QRQQAETNKQILAQV-NH2
modifications: N-terminus assumed
SMILES: CC[C@H](C)[C@H](N)C(=O)N[C@H](C(=O)N[C@@H](CC(C)C)C(=O)N[C@@H](CO)C(=O)N[C@@H](CC(C)C)C(=O)N[C@@H](CC(=O)O)C(=O)N[C@H](C(=O)N1CCC[C@H]1C(=O)N[C@H](C(=O)N[C@@H](CCCCN)C(=O)N[C@@H](CC(C)C)C(=O)N[C@@H](CCCCNC(=O)COCCOCCNC(=O)COCCOCCNC(=O)CC[C@H](NC(=O)CCCCCCCCCCCCCCCCC(=O)O)C(=O)O)C(=O)N[C@@H](CCC(N)=O)C(=O)N[C@H](C(=O)N[C@@H](CC(C)C)C(=O)N[C@@H](CC(C)C)C(=O)N[C@@H](CCC(=O)O)C(=O)N[C@@H](CCC(N)=O)C(=O)N[C@@H](CCC(=O)O)C(=O)N[C@@H](CCCNC(=N)N)C(=O)N[C@@H](CCC(N)=O)C(=O)N[C@@H](CCCCN)C(=O)NC(C)(C)C(=O)N[C@@H](CCC(N)=O)C(=O)N[C@@H](CCCNC(=N)N)C(=O)N[C@@H](CCC(N)=O)C(=O)N[C@@H](CCC(N)=O)C(=O)N[C@@H](C)C(=O)N[C@@H](CCC(=O)O)C(=O)N[C@H](C(=O)N[C@@H](CC(N)=O)C(=O)N[C@@H](CCCCN)C(=O)N[C@@H](CCC(N)=O)C(=O)N[C@H](C(=O)N[C@@H](CC(C)C)C(=O)N[C@@H](C)C(=O)N[C@@H](CCC(N)=O)C(=O)N[C@H](C(N)=O)C(C)C)[C@@H](C)CC)[C@@H](C)O)[C@@H](C)CC)[C@@H](C)CC)C(C)C)C(C)C
B4: SEQ ID NO: 104 (peptide)
peptide: IVLSLDVPIKLK([AEEA-AEEA-γGlu-C18 diacid])QILLKQERQK[Aib]QREQAETNKQILAQV-NH2
modifications: N-terminus assumed
SMILES: CC[C@H](C)[C@H](N)C(=O)N[C@H](C(=O)N[C@@H](CC(C)C)C(=O)N[C@@H](CO)C(=O)N[C@@H](CC(C)C)C(=O)N[C@@H](CC(=O)O)C(=O)N[C@H](C(=O)N1CCC[C@H]1C(=O)N[C@H](C(=O)N[C@@H](CCCCN)C(=O)N[C@@H](CC(C)C)C(=O)N[C@@H](CCCCNC(=O)COCCOCCNC(=O)COCCOCCNC(=O)CC[C@H](NC(=O)CCCCCCCCCCCCCCCCC(=O)O)C(=O)O)C(=O)N[C@@H](CCC(N)=O)C(=O)N[C@H](C(=O)N[C@@H](CC(C)C)C(=O)N[C@@H](CC(C)C)C(=O)N[C@@H](CCCCN)C(=O)N[C@@H](CCC(N)=O)C(=O)N[C@@H](CCC(=O)O)C(=O)N[C@@H](CCCNC(=N)N)C(=O)N[C@@H](CCC(N)=O)C(=O)N[C@@H](CCCCN)C(=O)NC(C)(C)C(=O)N[C@@H](CCC(N)=O)C(=O)N[C@@H](CCCNC(=N)N)C(=O)N[C@@H](CCC(=O)O)C(=O)N[C@@H](CCC(N)=O)C(=O)N[C@@H](C)C(=O)N[C@@H](CCC(=O)O)C(=O)N[C@H](C(=O)N[C@@H](CC(N)=O)C(=O)N[C@@H](CCCCN)C(=O)N[C@@H](CCC(N)=O)C(=O)N[C@H](C(=O)N[C@@H](CC(C)C)C(=O)N[C@@H](C)C(=O)N[C@@H](CCC(N)=O)C(=O)N[C@H](C(N)=O)C(C)C)[C@@H](C)CC)[C@@H](C)O)[C@@H](C)CC)[C@@H](C)CC)C(C)C)C(C)C
B5: SEQ ID NO: 101 (peptide)
peptide: IVLSLDVPIKLK([AEEA-AEEA-γGlu-C18 diacid])KILLKQERQKK[Aib]REQAETNKQILERV-NH2
modifications: N-terminus assumed
SMILES: CC[C@H](C)[C@H](N)C(=O)N[C@H](C(=O)N[C@@H](CC(C)C)C(=O)N[C@@H](CO)C(=O)N[C@@H](CC(C)C)C(=O)N[C@@H](CC(=O)O)C(=O)N[C@H](C(=O)N1CCC[C@H]1C(=O)N[C@H](C(=O)N[C@@H](CCCCN)C(=O)N[C@@H](CC(C)C)C(=O)N[C@@H](CCCCNC(=O)COCCOCCNC(=O)COCCOCCNC(=O)CC[C@H](NC(=O)CCCCCCCCCCCCCCCCC(=O)O)C(=O)O)C(=O)N[C@@H](CCCCN)C(=O)N[C@H](C(=O)N[C@@H](CC(C)C)C(=O)N[C@@H](CC(C)C)C(=O)N[C@@H](CCCCN)C(=O)N[C@@H](CCC(N)=O)C(=O)N[C@@H](CCC(=O)O)C(=O)N[C@@H](CCCNC(=N)N)C(=O)N[C@@H](CCC(N)=O)C(=O)N[C@@H](CCCCN)C(=O)N[C@@H](CCCCN)C(=O)NC(C)(C)C(=O)N[C@@H](CCCNC(=N)N)C(=O)N[C@@H](CCC(=O)O)C(=O)N[C@@H](CCC(N)=O)C(=O)N[C@@H](C)C(=O)N[C@@H](CCC(=O)O)C(=O)N[C@H](C(=O)N[C@@H](CC(N)=O)C(=O)N[C@@H](CCCCN)C(=O)N[C@@H](CCC(N)=O)C(=O)N[C@H](C(=O)N[C@@H](CC(C)C)C(=O)N[C@@H](CCC(=O)O)C(=O)N[C@@H](CCCNC(=N)N)C(=O)N[C@H](C(N)=O)C(C)C)[C@@H](C)CC)[C@@H](C)O)[C@@H](C)CC)[C@@H](C)CC)C(C)C)C(C)C
B6: SEQ ID NO: 100 (peptide)
peptide: IVLSLDVPIKLK([AEEA-AEEA-γGlu-C18 diacid])KILLKQERQKK[Aib]REQAETN[Aib]QILAQV-NH2
modifications: N-terminus assumed
SMILES: CC[C@H](C)[C@H](N)C(=O)N[C@H](C(=O)N[C@@H](CC(C)C)C(=O)N[C@@H](CO)C(=O)N[C@@H](CC(C)C)C(=O)N[C@@H](CC(=O)O)C(=O)N[C@H](C(=O)N1CCC[C@H]1C(=O)N[C@H](C(=O)N[C@@H](CCCCN)C(=O)N[C@@H](CC(C)C)C(=O)N[C@@H](CCCCNC(=O)COCCOCCNC(=O)COCCOCCNC(=O)CC[C@H](NC(=O)CCCCCCCCCCCCCCCCC(=O)O)C(=O)O)C(=O)N[C@@H](CCCCN)C(=O)N[C@H](C(=O)N[C@@H](CC(C)C)C(=O)N[C@@H](CC(C)C)C(=O)N[C@@H](CCCCN)C(=O)N[C@@H](CCC(N)=O)C(=O)N[C@@H](CCC(=O)O)C(=O)N[C@@H](CCCNC(=N)N)C(=O)N[C@@H](CCC(N)=O)C(=O)N[C@@H](CCCCN)C(=O)N[C@@H](CCCCN)C(=O)NC(C)(C)C(=O)N[C@@H](CCCNC(=N)N)C(=O)N[C@@H](CCC(=O)O)C(=O)N[C@@H](CCC(N)=O)C(=O)N[C@@H](C)C(=O)N[C@@H](CCC(=O)O)C(=O)N[C@H](C(=O)N[C@@H](CC(N)=O)C(=O)NC(C)(C)C(=O)N[C@@H](CCC(N)=O)C(=O)N[C@H](C(=O)N[C@@H](CC(C)C)C(=O)N[C@@H](C)C(=O)N[C@@H](CCC(N)=O)C(=O)N[C@H](C(N)=O)C(C)C)[C@@H](C)CC)[C@@H](C)O)[C@@H](C)CC)[C@@H](C)CC)C(C)C)C(C)C

target: human corticotropin-releasing factor 2α (CRF2 α receptor) (human), Q13324; assay: cell-based or functional assay
Sequence (Q13324 20-411): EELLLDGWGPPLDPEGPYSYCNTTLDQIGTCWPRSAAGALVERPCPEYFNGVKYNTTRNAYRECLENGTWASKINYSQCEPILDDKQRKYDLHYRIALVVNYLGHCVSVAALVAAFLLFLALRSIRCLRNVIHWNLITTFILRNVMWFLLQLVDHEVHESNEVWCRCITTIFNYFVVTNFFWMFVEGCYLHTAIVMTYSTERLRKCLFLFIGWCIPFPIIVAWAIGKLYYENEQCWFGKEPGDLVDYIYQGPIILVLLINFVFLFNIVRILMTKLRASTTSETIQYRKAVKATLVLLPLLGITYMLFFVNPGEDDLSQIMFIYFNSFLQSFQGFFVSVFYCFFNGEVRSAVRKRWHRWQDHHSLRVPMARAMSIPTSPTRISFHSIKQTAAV

Row | EC50 [nM], 0% HSA [nM] | EC50 [nM], 0.1% HSA [nM] | Binder
1 | 0.07 |  | B1
2 | 0.84 |  | B2
3 | 0.41 | 15.3 | B3
4 | 0.32 |  | B4
5 | 0.11 | 4.28 | B5
6 | 0.51 | 20.5 | B6
